Data as given in patent publication US20200199241A1 (Chugai, published 2020).

How the values were obtained:
Experiment in all cases: SPR (Biacore);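 further: antibody variants captured on sensor chip, Fcγ receptor flowed over at 25 °C, bound receptor normalized to amount of captured antibody, expressed relative to reference antibody set as 100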
human FcγRIIa(R) = biological target: T1, human FcγRIIa(R) (human, UniProt P12318 36-217)
T1 construct: also called FcgRIIaR; FcγRIIa type R
T1 chain: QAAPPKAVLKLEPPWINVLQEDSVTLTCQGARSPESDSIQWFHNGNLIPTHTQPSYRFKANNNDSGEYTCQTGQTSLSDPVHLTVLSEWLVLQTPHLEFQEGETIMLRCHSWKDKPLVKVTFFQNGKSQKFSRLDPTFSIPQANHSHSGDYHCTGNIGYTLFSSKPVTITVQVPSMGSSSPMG
Experimental: (§1) Interaction between each modified antibody and Fcγ receptor prepared in the manner described above was analyzed using the BIACORE™ T100 surface plasmon resonance system (GE Healthcare), BIACORE™ T200 surface plasmon resonance system (GE Healthcare), BIACORE™ A100 surface plasmon resonance system or BIACORE™ 4000 surface plasmon resonance system. HBS-EP+ (GE Healthcare) was used for the running buffer, and measurements were carried out at 25° C. The chips used were chips in which antigen peptides, Protein A (Thermo Scientific), Protein A/G (Thermo Scientific) or Protein L (ACTIGEN® protein (Alltech or BioVision) were immobilized on the Series S Sensor Chip CMS (GE Healthcare) or Series S Sensor Chip CM4 (GE Healthcare) by amine coupling, or chips in which preliminarily biotinylated antigen peptides were allowed to interact and then immobilized on the Series S Sensor Chip SA (certified) (GE Healthcare). The target antibodies were captured on these sensor chips, Fcγ receptor diluted with the running buffer was allowed to interact, followed by measurement of the amount of bound antibody. The amounts bound were compared between antibodies. However, since the amount of Fcγ receptor bound depends on the amount of captured antibody, the values used for comparison were first corrected by dividing the amount of Fcγ receptor bound by the captured amount of each antibody. Through reaction with 10 mM glycine-HCl at pH 1.5, the sensor chips were regenerated by washing off antibody captured on the sensor chips and used repeatedly.
(§2) Binding strength was evaluated according to the following method based on the results of analyzing the interaction with each FcγR. […] That value was then further multiplied by 100, and the resulting value was used as an indicator of relative binding activity to each FcγR.

human FcγRIIb = biological target: T2, human FcγRIIb (human, UniProt P31994 43-217, limits assumed)
T2 construct: also called FcgRIIb
T2 sequence: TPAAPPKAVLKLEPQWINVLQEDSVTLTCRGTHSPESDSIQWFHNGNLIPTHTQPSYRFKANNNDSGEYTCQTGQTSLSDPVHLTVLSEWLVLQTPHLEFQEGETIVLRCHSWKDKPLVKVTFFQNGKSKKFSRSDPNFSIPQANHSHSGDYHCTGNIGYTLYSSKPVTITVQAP
Experimental: as §1, §2

human FcγRIIIa(F) = biological target: T3, human FcγRIIIa(F) (human, UniProt P08637 17-208, limits assumed)
T3 construct: also called FcgRIIIaF; allotype F158
T3 sequence (P08637 other isoform, or with tags, fused parts or gaps limits assumed): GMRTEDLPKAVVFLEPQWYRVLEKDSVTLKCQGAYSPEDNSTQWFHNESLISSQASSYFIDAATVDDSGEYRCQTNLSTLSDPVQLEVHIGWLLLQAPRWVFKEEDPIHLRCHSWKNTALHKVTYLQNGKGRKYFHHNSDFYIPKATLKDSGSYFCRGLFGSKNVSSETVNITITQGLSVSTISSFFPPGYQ
Experimental: as §1, §2

human FcγRIa = biological target: T4, human FcγRIa (human, UniProt P12314 16-292, limits assumed)
T4 construct: also called FcgRIa; FcγRI (CD64)
T4 sequence (P12314 16-292 limits assumed): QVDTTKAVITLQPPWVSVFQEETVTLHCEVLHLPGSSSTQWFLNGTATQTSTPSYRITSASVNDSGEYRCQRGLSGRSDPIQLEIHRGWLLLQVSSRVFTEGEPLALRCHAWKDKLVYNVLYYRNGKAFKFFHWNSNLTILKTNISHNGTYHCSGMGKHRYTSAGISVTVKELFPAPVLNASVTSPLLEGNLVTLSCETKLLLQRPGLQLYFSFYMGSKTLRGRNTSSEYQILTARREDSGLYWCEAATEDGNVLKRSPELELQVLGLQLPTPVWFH
Experimental: as §1, §2

human FcγRIIa(H) = biological target: T5, human FcγRIIa(H) (human, UniProt P12318 36-217)
T5 construct: also called FcgRIIaH; FcγRIIa type H
T5 sequence: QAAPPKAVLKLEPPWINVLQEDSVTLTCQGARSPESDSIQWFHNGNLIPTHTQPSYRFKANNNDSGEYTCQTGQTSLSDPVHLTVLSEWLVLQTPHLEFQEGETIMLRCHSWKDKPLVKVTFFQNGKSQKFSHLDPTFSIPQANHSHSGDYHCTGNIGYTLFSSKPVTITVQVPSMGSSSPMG
Experimental: as §1, §2

Binder | relative binding activity (human FcγRIIa(R)) | relative binding activity (human FcγRIIb) | relative binding activity (human FcγRIIIa(F)) | relative binding activity (human FcγRIa) | relative binding activity (human FcγRIIa(H))
GpH7-B3 variant L235Q/GpL16-k0 (antibody, human IgG1, copies: 2 + 2) heavy: not shown light: DIVMTQSPLSLPVTPGEPASISCQASESLVHSNRNTYLHWYLQKPGQSPQLLIYKVSNRFSGVPDRFSGSGSGTDFTLKISRVEAEDVGVYYCSQNTHVPPTFGQGTKVEIE | 28 % of GpH7-B3/GpL16-k0 | 20 % of GpH7-B3/GpL16-k0 | 35 % of GpH7-B3/GpL16-k0 | 29 % of GpH7-B3/GpL16-k0 | 34 % of GpH7-B3/GpL16-k0
GpH7-B3 variant S239F/GpL16-k0 (antibody, human IgG1, copies: 2 + 2) heavy: not shown light: DIVMTQSPLSLPVTPGEPASISCQASESLVHSNRNTYLHWYLQKPGQSPQLLIYKVSNRFSGVPDRFSGSGSGTDFTLKISRVEAEDVGVYYCSQNTHVPPTFGQGTKVEIE | 20 % of GpH7-B3/GpL16-k0 | 12 % of GpH7-B3/GpL16-k0 | 3 % of GpH7-B3/GpL16-k0 | 77 % of GpH7-B3/GpL16-k0 | 11 % of GpH7-B3/GpL16-k0
GpH7-B3 variant P238W/GpL16-k0 (antibody, human IgG1, copies: 2 + 2) heavy: not shown light: DIVMTQSPLSLPVTPGEPASISCQASESLVHSNRNTYLHWYLQKPGQSPQLLIYKVSNRFSGVPDRFSGSGSGTDFTLKISRVEAEDVGVYYCSQNTHVPPTFGQGTKVEIE | 25 % of GpH7-B3/GpL16-k0 | 13 % of GpH7-B3/GpL16-k0 | -1 % of GpH7-B3/GpL16-k0 | 99 % of GpH7-B3/GpL16-k0 | 2 % of GpH7-B3/GpL16-k0
GpH7-B3 variant P238S/GpL16-k0 (antibody, human IgG1, copies: 2 + 2) heavy: not shown light: DIVMTQSPLSLPVTPGEPASISCQASESLVHSNRNTYLHWYLQKPGQSPQLLIYKVSNRFSGVPDRFSGSGSGTDFTLKISRVEAEDVGVYYCSQNTHVPPTFGQGTKVEIE | 32 % of GpH7-B3/GpL16-k0 | 28 % of GpH7-B3/GpL16-k0 | 3 % of GpH7-B3/GpL16-k0 | 91 % of GpH7-B3/GpL16-k0 | 13 % of GpH7-B3/GpL16-k0
GpH7-B3 variant P238G/GpL16-k0 (antibody, human IgG1, copies: 2 + 2) heavy: not shown light: DIVMTQSPLSLPVTPGEPASISCQASESLVHSNRNTYLHWYLQKPGQSPQLLIYKVSNRFSGVPDRFSGSGSGTDFTLKISRVEAEDVGVYYCSQNTHVPPTFGQGTKVEIE | 4 % of GpH7-B3/GpL16-k0 | 27 % of GpH7-B3/GpL16-k0 | 0 % of GpH7-B3/GpL16-k0 | 65 % of GpH7-B3/GpL16-k0 | 1 % of GpH7-B3/GpL16-k0
GpH7-B3 variant L235R/GpL16-k0 (antibody, human IgG1, copies: 2 + 2) heavy: not shown light: DIVMTQSPLSLPVTPGEPASISCQASESLVHSNRNTYLHWYLQKPGQSPQLLIYKVSNRFSGVPDRFSGSGSGTDFTLKISRVEAEDVGVYYCSQNTHVPPTFGQGTKVEIE | -4 % of GpH7-B3/GpL16-k0 | -2 % of GpH7-B3/GpL16-k0 | 9 % of GpH7-B3/GpL16-k0 | 0 % of GpH7-B3/GpL16-k0 | 1 % of GpH7-B3/GpL16-k0
GpH7-B3 variant P238H/GpL16-k0 (antibody, human IgG1, copies: 2 + 2) heavy: not shown light: DIVMTQSPLSLPVTPGEPASISCQASESLVHSNRNTYLHWYLQKPGQSPQLLIYKVSNRFSGVPDRFSGSGSGTDFTLKISRVEAEDVGVYYCSQNTHVPPTFGQGTKVEIE | 25 % of GpH7-B3/GpL16-k0 | 19 % of GpH7-B3/GpL16-k0 | -1 % of GpH7-B3/GpL16-k0 | 80 % of GpH7-B3/GpL16-k0 | 3 % of GpH7-B3/GpL16-k0
GpH7-B3 variant P238I/GpL16-k0 (antibody, human IgG1, copies: 2 + 2) heavy: not shown light: DIVMTQSPLSLPVTPGEPASISCQASESLVHSNRNTYLHWYLQKPGQSPQLLIYKVSNRFSGVPDRFSGSGSGTDFTLKISRVEAEDVGVYYCSQNTHVPPTFGQGTKVEIE | 43 % of GpH7-B3/GpL16-k0 | 31 % of GpH7-B3/GpL16-k0 | 3 % of GpH7-B3/GpL16-k0 | 99 % of GpH7-B3/GpL16-k0 | 19 % of GpH7-B3/GpL16-k0
GpH7-B3 variant L235V/GpL16-k0 (antibody, human IgG1, copies: 2 + 2) heavy: not shown light: DIVMTQSPLSLPVTPGEPASISCQASESLVHSNRNTYLHWYLQKPGQSPQLLIYKVSNRFSGVPDRFSGSGSGTDFTLKISRVEAEDVGVYYCSQNTHVPPTFGQGTKVEIE | 50 % of GpH7-B3/GpL16-k0 | 47 % of GpH7-B3/GpL16-k0 | 77 % of GpH7-B3/GpL16-k0 | 69 % of GpH7-B3/GpL16-k0 | 68 % of GpH7-B3/GpL16-k0
GpH7-B3 variant P238N/GpL16-k0 (antibody, human IgG1, copies: 2 + 2) heavy: not shown light: DIVMTQSPLSLPVTPGEPASISCQASESLVHSNRNTYLHWYLQKPGQSPQLLIYKVSNRFSGVPDRFSGSGSGTDFTLKISRVEAEDVGVYYCSQNTHVPPTFGQGTKVEIE | 5 % of GpH7-B3/GpL16-k0 | 27 % of GpH7-B3/GpL16-k0 | -1 % of GpH7-B3/GpL16-k0 | 64 % of GpH7-B3/GpL16-k0 | 1 % of GpH7-B3/GpL16-k0
